Read-outs that look alike come from different tables or passages of the source. Each block holds one binder with its values, some of them ahead of it.
Key:
[1] = molecular target: T1, human TIGIT expressed on cells (human, UniProt Q495A1 25-244); assay: cell-based or functional assay
T1 sequence: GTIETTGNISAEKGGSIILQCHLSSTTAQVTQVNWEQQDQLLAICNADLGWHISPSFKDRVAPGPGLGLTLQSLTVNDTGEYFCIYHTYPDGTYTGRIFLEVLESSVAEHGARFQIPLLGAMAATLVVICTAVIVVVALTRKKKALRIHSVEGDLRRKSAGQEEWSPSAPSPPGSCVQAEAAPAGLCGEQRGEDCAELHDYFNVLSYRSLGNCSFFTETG

[2] = molecular target: T1, human TIGIT expressed on cells; assay: cell-based ELISA, panel 'Binding to human TIGIT-CHO K1 cells'
[3] = molecular target: T2, rhesus TIGIT expressed on CHO-K1 cells (rhesus monkey); assay: cell-based ELISA, panel 'Binding to rhesus TIGIT CHO K1 cells'
T2 construct: also called rhesus TIGIT-CHOK1 cells; Cyno/Rhesus TIGIT

[4] = molecular target: T3, Human TIGIT-His (extracellular domain of hTIGIT with a histidine tag) (human, UniProt Q495A1 25-141); assay: SPR, Biacore T200, antibody captured on anti-rat IgG Fc, TIGIT-His in solution, 1:1 Langmuir fit
T3 construct: also called hTIGIT-His; hTIGIT-HIS
T3 sequence: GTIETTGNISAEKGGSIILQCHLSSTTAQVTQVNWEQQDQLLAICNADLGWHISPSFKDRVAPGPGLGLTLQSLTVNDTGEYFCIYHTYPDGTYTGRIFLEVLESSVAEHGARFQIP
Protocol: (§1) The kinetic binding activity of anti-human TIGIT antibodies 14A6 and 31C6 (made as described in Example 1) and of commercial antibody MBSA43 was measured by surface plasmon resonance using a Biacore T200 system (Biacore, GE Healthcare, Piscataway, N.J.). Approximately 5000 RU of Anti-mouse IgG, GE Healthcare Catalog Number BR-1008-38, or approximately 13,000 RU of Goat Anti-Rat IgG Fc gamma, Fragment Specific, Jackson ImmunoResearch Catalog Number 112-006-071, was immobilized via amine coupling chemistry onto a Series S CM5 sensor chip, catalog number BR-1005-30. Mouse anti-human TIGIT clones, 31C6 and MBSA43, were each injected over the immobilized anti-mouse surfaces at 1 ug/mL for a capture level of 40 RU. Rat anti-human TIGIT clone 14A6 was injected over the immobilized anti-rat surfaces at 1 ug/mL for a capture level of 40 RU. HBS-EP+ buffer (BR-1006-69) was used as the running buffer with a flow rate of 30 μL/min. Varying concentrations of human TIGIT-His protein or TIGIT-Fc protein, ranging from 0.29 nM to 40 nM, at a flow rate of 45 μL/min were injected over the antibody surfaces. Following each Mouse anti-human TIGIT injection cycle for clones 31C6 and MBSA43, the Series S CM5 chip surface was regenerated using one three-minute injection of 10 mM Glycine pH 1.7 at a flow rate of […]. […]

human TIGIT-Fc protein [5] = molecular target: T4, human TIGIT-Fc protein (human, UniProt Q495A1 25-141); assay: SPR, Biacore T200, antibody captured on anti-rat IgG Fc, TIGIT-Fc in solution, 1:1 Langmuir fit
T4 construct: not shown: Fc part
T4 sequence: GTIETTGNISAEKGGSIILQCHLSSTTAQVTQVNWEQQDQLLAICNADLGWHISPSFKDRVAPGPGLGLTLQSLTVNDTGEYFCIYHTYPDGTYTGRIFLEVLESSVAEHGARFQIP
Protocol: as §1

[6] = molecular target: T1, human TIGIT expressed on cells; assay: cell-based ELISA blocking assay: binding of hCD155-hFc to human TIGIT-CHO-K1 cells, antibody titrated
[7] = molecular target: T1, human TIGIT expressed on cells; assay: cell-based ELISA, panel 'Binding to human TIGIT-CHO-K1 cells'
[8] = molecular target: T2, rhesus TIGIT expressed on CHO-K1 cells; assay: cell-based ELISA, panel 'Binding to rhesus TIGIT-CHOK1 cells'
[9] = molecular target: T3, Human TIGIT-His (extracellular domain …); assay: SPR, Biacore T200, antibody captured on anti-mouse IgG, TIGIT-His in solution, 1:1 Langmuir fit
Protocol: as §1

[10] = molecular target: T1, human TIGIT expressed on cells; assay: cell-based ELISA, panel 'Binding to hTIGIT-CHO'
[11] = molecular target: T2, rhesus TIGIT expressed on CHO-K1 cells; assay: cell-based ELISA, panel 'Binding to rhesus TIGIT-CHO'
human TIGIT-Fc protein [12] = molecular target: T4, human TIGIT-Fc protein; assay: SPR, Biacore T200, antibody captured on anti-mouse IgG, TIGIT-Fc in solution, 1:1 Langmuir fit
Protocol: as §1

[13] = molecular target: T1, human TIGIT expressed on cells; assay: cell-based ELISA blocking assay: binding of hCD155-hFc to human TIGIT-CHO-K1 cells, antibody titrated; remark: listed apart in the source
[14] = molecular target: T1, human TIGIT expressed on cells; assay: cell-based or functional assay; remark: listed apart in the source

T2 sequence (chain, as listed by the source): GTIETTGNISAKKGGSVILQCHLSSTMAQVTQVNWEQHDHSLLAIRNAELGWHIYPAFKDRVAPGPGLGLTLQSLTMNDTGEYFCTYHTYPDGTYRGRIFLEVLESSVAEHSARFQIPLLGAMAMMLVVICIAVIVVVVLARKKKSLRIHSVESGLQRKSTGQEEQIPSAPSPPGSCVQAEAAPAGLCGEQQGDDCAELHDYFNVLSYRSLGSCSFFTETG

EC50 of IL-2 rescue in hTIGIT-Jurkat / THP-1 co-culture [1]: 0.24 µg/mL
increase in IFNγ production, BC4-clone 49 T cells with JY-hCD155 cells [1]: ~2 fold
EC50 (read off the curve) [2]: ~100 µg/mL
EC50 (read off the curve) [3]: ~0.05 µg/mL
B1: 28H5 (mouse anti-human TIGIT antibody, clone TC167.28H5.H5) (antibody, mouse IgG1, V domains shown)
VH: DVQLQESGPGLVKPSQSLSLTCTVTGYSITSDYAWNWIRQFPGNKLEWMGYISNSGSASYNPSLKSRISITRDTSKNQFFLQLNSVTTEDTATYYCATLIYYDYGGAMNFWGQGTSVTVSS
VL: DIVMTQSHKFMSTSVGDRVSITCKASQGVSTTVAWYQQKPGQSPKLLIYSASYRYTGVPDRFTGSGSGTDFTFTISSVQSEDLAVYYCQHYYSTPWTFGGGTKLEIK
notes: Mouse IgG1/kappa

EC50 of IL-2 rescue in hTIGIT-Jurkat / THP-1 co-culture [1]: 0.19 µg/mL
IL-2 rescue relative to MBSA43 (10 µg/ml) [1]: 82%
increase in IFNγ production, BC4-clone 49 T cells with JY-hCD155 cells [1]: ~2 fold
Kd [4]: 3.09 pM
Kd (human TIGIT-Fc protein [5]): 3.12 pM
IC50 (read off the curve) [6]: ~0.1 µg/mL
EC50 (read off the curve) [7]: ~0.1 µg/mL
EC50 (read off the curve) [8]: ~0.2 µg/mL
B2: 14A6 (rat anti-human TIGIT antibody, clone LB155.14A6.G2.A8) (antibody, V domains shown)
VH: EVQLQESGPGLVKPSQSLSLTCSVTGSSIASDYWGWIRKFPGNKMEWMGFITYSGSTSYNPSLKSRISITRDTSKNQFFLQLHSVTTDDTATYSCARMPSFITLASLSTWEGYFDFWGPGTMVTVSS
VL: DIQMTQSPSLLSASVGDRVTLNCKASQSIHKNLAWYQQKLGEAPKFLIYYANSLQTGIPSRFSGSGSGTDFTLTISGLQPEDVATYFCQQYYSGWTFGGGTKVELK
notes: also called 14A6 (rIgG2a/K)

EC50 of IL-2 rescue in hTIGIT-Jurkat / THP-1 co-culture [1]: 0.14 µg/mL
EC50 of IL-2 rescue in hTIGIT-Jurkat / hCD155-JY co-culture [1]: 0.73 µg/mL
IL-2 rescue relative to MBSA43 (10 µg/ml) [1]: 118%
increase in IFNγ production, BC4-clone 49 T cells with JY-hCD155 cells [1]: ~2 fold
Kd [9]: 34.4 pM
EC50 (read off the curve) [10]: ~0.03 µg/mL
EC50 (read off the curve) [11]: ~0.06 µg/mL
Kd (human TIGIT-Fc protein [12]): 10.9 pM
IC50 (read off the curve) [13]: ~0.9 µg/mL
B3: 31C6 (mouse anti-human TIGIT antibody, clone MEB125.31C6.A1.205) (antibody, mouse IgG1, V domains shown)
VH: EVQLQQSGPELVKPGSSVKMSCKASGYTFSSYVMHWVKQKPGQGLEWIGYIDPYNDGAKYNEKFKGKATLTSDKSSSTAYMELSSLTSEDSAVYYCARGGPYGWYFDVWGAGTTVTVSS
VL: DIQMTQSPASLSASVGETVTITCRASEHIYSYLSWYQQKQGKSPQLLVYNAKTLAEGVPSRFSGSGSGTQFSLKINSLQPEDFGTYYCQHHFGSPLTFGAGTTLELK
notes: Mouse IgG1/kappa; also called 31C6 (mIgG1/K); MEB125.31C6.A1.205 mIgG1

EC50 of IL-2 rescue in hTIGIT-Jurkat / hCD155-JY co-culture [1]: 0.91 µg/mL
B4: Mouse human chimera MEB125.31C6.A1.205 IgG1 (antibody, V domains shown)
VH: EVQLQQSGPELVKPGSSVKMSCKASGYTFSSYVMHWVKQKPGQGLEWIGYIDPYNDGAKYNEKFKGKATLTSDKSSSTAYMELSSLTSEDSAVYYCARGGPYGWYFDVWGAGTTVTVSS
VL: DIQMTQSPASLSASVGETVTITCRASEHIYSYLSWYQQKQGKSPQLLVYNAKTLAEGVPSRFSGSGSGTQFSLKINSLQPEDFGTYYCQHHFGSPLTFGAGTTLELK

EC50 of IL-2 rescue in hTIGIT-Jurkat / hCD155-JY co-culture [14]: 0.62 µg/mL
B5: MEB125.31C6.A1.205 VH4/VL1 (antibody, human IgG1, V domains shown)
VH: EVQLVQSGAEVKKPGASVKVSCKASGYTFSSYVMHWVRQAPGQGLEWIGYIDPYNDGAKYAQKFQGRVTLTSDKSTSTVYMELSSLRSEDTAVYYCARGGPYGWYFDVWGQGTTVTVSS
VL: DIQMTQSPSSLSASVGDRVTITCRASEHIYSYLSWYQQKPGKAPKLLIYNAKTLAEGVPSRFSGSGSGTDFTLTISSLQPEDFATYYCQHHFGSPLTFGQGTRLEIK

EC50 of IL-2 rescue in hTIGIT-Jurkat / hCD155-JY co-culture [14]: 1.2 µg/mL
B6: MEB125.31C6.A1.205 VH5/VL3 (antibody, human IgG1, V domains shown)
VH: EVQLVQSGAEVKKPGSSVKVSCKASGYTFSSYVMHWVRQAPGQGLEWIGYIDPYNDGAKYAQKFQGRVTLTSDKSTSTAYMELSSLRSEDTAVYYCARGGPYGWYFDVWGQGTTVTVSS
VL: DIQMTQSPSSLSASVGDRVTITCRASEHIYSYLSWYQQKPGKVPKLLIYNAKTLAEGVPSRFSGSGSGTDFTLTISSLQPEDVATYYCQHHFGSPLTFGQGTRLEIK

EC50 of IL-2 rescue in hTIGIT-Jurkat / hCD155-JY co-culture [14]: 1.2 µg/mL
B7: MEB125.31C6.A1.205 VH5/VL4 (antibody, human IgG1, V domains shown)
VH: EVQLVQSGAEVKKPGSSVKVSCKASGYTFSSYVMHWVRQAPGQGLEWIGYIDPYNDGAKYAQKFQGRVTLTSDKSTSTAYMELSSLRSEDTAVYYCARGGPYGWYFDVWGQGTTVTVSS
VL: DIQMTQSPSSLSASVGDRVTITCRASEHIYSYLSWYQQKPGKVPKLLIYNAKTLAEGVPSRFSGSGSGTQFTLTISSLQPEDVATYYCQHHFGSPLTFGQGTRLEIK

— patent US20200270346A1 (Merck Sharp & Dohme, published 2020)
